These are literature values, as cited in publication PMC3238542.

Read-outs that look alike come from different tables or passages of the source.

The Ki is a dissociation constant, usually derived from enzyme kinetics or from competition with a known ligand.

Data set [1] addresses pyruvate carboxylase (UniProt P11498).
The target is the same in data set [2]. The experiment in a line: enzyme inhibition.

Sequence of UniProt P11498 (P11498 21-1178): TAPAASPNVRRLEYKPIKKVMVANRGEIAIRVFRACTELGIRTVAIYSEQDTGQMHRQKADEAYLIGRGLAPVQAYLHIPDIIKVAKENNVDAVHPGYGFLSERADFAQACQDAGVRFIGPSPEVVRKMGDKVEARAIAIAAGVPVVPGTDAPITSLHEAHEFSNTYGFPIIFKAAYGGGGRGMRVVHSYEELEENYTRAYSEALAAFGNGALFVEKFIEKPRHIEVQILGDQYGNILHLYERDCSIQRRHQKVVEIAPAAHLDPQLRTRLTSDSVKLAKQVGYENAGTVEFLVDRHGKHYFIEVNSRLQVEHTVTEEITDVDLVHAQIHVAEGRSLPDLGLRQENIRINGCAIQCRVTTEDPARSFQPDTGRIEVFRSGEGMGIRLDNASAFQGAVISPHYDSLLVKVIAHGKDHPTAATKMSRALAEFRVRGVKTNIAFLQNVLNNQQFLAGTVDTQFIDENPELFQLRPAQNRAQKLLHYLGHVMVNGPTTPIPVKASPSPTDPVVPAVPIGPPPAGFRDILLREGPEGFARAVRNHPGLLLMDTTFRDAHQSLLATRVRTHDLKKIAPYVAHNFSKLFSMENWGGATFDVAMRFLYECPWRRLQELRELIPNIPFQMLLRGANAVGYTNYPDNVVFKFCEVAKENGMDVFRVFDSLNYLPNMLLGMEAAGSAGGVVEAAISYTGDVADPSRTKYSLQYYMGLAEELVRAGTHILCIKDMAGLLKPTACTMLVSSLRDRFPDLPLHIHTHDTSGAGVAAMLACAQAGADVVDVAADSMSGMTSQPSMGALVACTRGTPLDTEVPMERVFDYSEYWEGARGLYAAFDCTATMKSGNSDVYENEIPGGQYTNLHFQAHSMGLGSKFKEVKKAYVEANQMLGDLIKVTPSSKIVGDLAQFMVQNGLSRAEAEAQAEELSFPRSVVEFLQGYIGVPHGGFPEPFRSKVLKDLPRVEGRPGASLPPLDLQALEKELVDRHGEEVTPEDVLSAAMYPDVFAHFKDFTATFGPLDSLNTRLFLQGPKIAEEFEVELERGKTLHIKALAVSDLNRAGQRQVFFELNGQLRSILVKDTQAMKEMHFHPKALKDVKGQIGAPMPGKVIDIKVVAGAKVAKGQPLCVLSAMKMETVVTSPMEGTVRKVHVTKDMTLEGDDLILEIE

For prohibitin (Phb1) (from UniProt P35232), the figures for the Ki in the data set with pyruvate carboxylase [1] and in the data set with pyruvate carboxylase [2] were 4 nM and 5 nM, respectively.
